% residual amidolytic activity, 16.6 µM inhibitor, 20 h and % residual amidolytic activity, 42.3 µM inhibitor, 20 h data for 19 molecules are collected here from patent US20030018175A1.

The assay has as its target human alpha-1-antitrypsin (Sigma) (human) (UniProt P01009). As to the kind of experiment: cell-based or functional assay.
Sequence of UniProt P01009 (P01009 25-418 limits assumed): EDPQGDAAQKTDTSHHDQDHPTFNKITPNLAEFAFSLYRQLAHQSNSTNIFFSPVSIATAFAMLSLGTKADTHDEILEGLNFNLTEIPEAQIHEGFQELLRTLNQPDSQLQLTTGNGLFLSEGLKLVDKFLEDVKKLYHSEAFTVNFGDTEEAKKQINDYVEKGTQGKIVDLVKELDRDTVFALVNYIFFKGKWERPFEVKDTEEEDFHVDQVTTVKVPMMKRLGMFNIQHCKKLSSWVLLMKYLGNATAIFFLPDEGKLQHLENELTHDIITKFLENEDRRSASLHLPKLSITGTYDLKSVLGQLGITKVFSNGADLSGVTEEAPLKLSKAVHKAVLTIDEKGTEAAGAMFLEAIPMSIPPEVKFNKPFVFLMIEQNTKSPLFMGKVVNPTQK

On to APC conjugate D189N+K191T (enzyme), for which the % residual amidolytic activity, 16.6 µM inhibitor, 20 h at 37 °C was 90% and the % residual amidolytic activity, 42.3 µM inhibitor, 20 h at 37 °C turned out to be 77%.

APC conjugate D214N (enzyme) showed a % residual amidolytic activity, 16.6 µM inhibitor, 20 h at 37 °C of 80% and a % residual amidolytic activity, 42.3 µM inhibitor, 20 h at 37 °C of 81%.

APC conjugate E307N+E309T (enzyme) gave a % residual amidolytic activity, 16.6 µM inhibitor, 20 h at 37 °C of 10% and a % residual amidolytic activity, 42.3 µM inhibitor, 20 h at 37 °C of less than 1%.

In turn, APC conjugate K191N+K193T (enzyme) came in with a % residual amidolytic activity, 16.6 µM inhibitor, 20 h at 37 °C of 59% and a % residual amidolytic activity, 42.3 µM inhibitor, 20 h at 37 °C of 24%.

In the case of APC conjugate K217N+L219T (enzyme), the % residual amidolytic activity, 16.6 µM inhibitor, 20 h at 37 °C was determined as 20% and the % residual amidolytic activity, 42.3 µM inhibitor, 20 h at 37 °C was determined as 4%.

APC conjugate L386N+H388T (enzyme) came in with a % residual amidolytic activity, 16.6 µM inhibitor, 20 h at 37 °C of 68% and a % residual amidolytic activity, 42.3 µM inhibitor, 20 h at 37 °C of 44%.

APC conjugate M338N (enzyme) yielded a % residual amidolytic activity, 16.6 µM inhibitor, 20 h at 37 °C of 38% and a % residual amidolytic activity, 42.3 µM inhibitor, 20 h at 37 °C of 12%.

Take APC conjugate S305N+E307T (enzyme): the % residual amidolytic activity, 16.6 µM inhibitor, 20 h at 37 °C came out at 42% and the % residual amidolytic activity, 42.3 µM inhibitor, 20 h at 37 °C turned out to be 9%.

With APC conjugate S336N+M338T (enzyme), the % residual amidolytic activity, 16.6 µM inhibitor, 20 h at 37 °C was 72% and the % residual amidolytic activity, 42.3 µM inhibitor, 20 h at 37 °C was 40%.

APC conjugate T253N+D255T (enzyme) came in with a % residual amidolytic activity, 16.6 µM inhibitor, 20 h at 37 °C of 56% and a % residual amidolytic activity, 42.3 µM inhibitor, 20 h at 37 °C of 38%.

“APC variant D189N+K191N (control) (enzyme)” showed a % residual amidolytic activity, 16.6 µM inhibitor, 20 h at 37 °C of 12% and a % residual amidolytic activity, 42.3 µM inhibitor, 20 h at 37 °C of less than 1%.

As to APC variant D214A (control) (enzyme), the % residual amidolytic activity, 16.6 µM inhibitor, 20 h at 37 °C was found to be 21% and the % residual amidolytic activity, 42.3 µM inhibitor, 20 h at 37 °C worked out at 1%.

As to APC variant K251N (enzyme), the % residual amidolytic activity, 16.6 µM inhibitor, 20 h at 37 °C turned out to be 62% and the % residual amidolytic activity, 42.3 µM inhibitor, 20 h at 37 °C stood at 53%.

APC variant M338A (control) (enzyme) came in with a % residual amidolytic activity, 16.6 µM inhibitor, 20 h at 37 °C of 9% and a % residual amidolytic activity, 42.3 µM inhibitor, 20 h at 37 °C of 2%.

Consider APC variant S190N+K192T (enzyme), for which the % residual amidolytic activity, 16.6 µM inhibitor, 20 h at 37 °C stood at 28% and the % residual amidolytic activity, 42.3 µM inhibitor, 20 h at 37 °C is 5%.

For APC variant S252N (enzyme), the % residual amidolytic activity, 16.6 µM inhibitor, 20 h at 37 °C stood at 62% and the % residual amidolytic activity, 42.3 µM inhibitor, 20 h at 37 °C turned out to be 34%.

For APC variant Y302N (enzyme), the % residual amidolytic activity, 16.6 µM inhibitor, 20 h at 37 °C turned out to be 50% and the % residual amidolytic activity, 42.3 µM inhibitor, 20 h at 37 °C stood at 30%.

Molecule wild-type COS 7 APC (enzyme) displayed a % residual amidolytic activity, 16.6 µM inhibitor, 20 h at 37 °C of 7% and a % residual amidolytic activity, 42.3 µM inhibitor, 20 h at 37 °C of less than 1%.

B1: wild-type plasma APC (enzyme)
chain: ANSFLEELRHSSLERECIEEICDFEEAKEIFQNVDDTLAFWSKHVDGDQCLVLPLEHPCASLCCGHGTCIDGIGSFSCDCRSGWEGRFCQREVSFLNCSLDNGGCTHYCLEEVGWRRCSCAPGYKLGDDLLQCHPAVKFPCGRPWKRMEKKRSHLLIDGKMTRRGDSPWQVVLLDSKKKLACGAVLIHPSWVLTAAHCMDESKKLLVRLGEYDLRRWEKWELDLDIKEVFVHPNYSKSTTDNDIALLHLAQPATLSQTIVPICLPDSGLAERELNQAGQETLVTGWGYHSSREKEAKRNRTFVLNFIKIPVVPHNECSEVMSNMVSENMLCAGILGDRQDACEGDSGGPMVASFHGTWFLVGLVSWGEGCGLLHNYGVYTKVSRYLDWIHGHIRDKEAPQKSWAP
modifications: two chains: light 1-155, heavy 170-419
In the case of B1, the % residual amidolytic activity, 16.6 µM inhibitor, 20 h at 37 °C is 10% and the % residual amidolytic activity, 42.3 µM inhibitor, 20 h at 37 °C turned out to be 2%.
